PMC12487280

Tests used:
[1] = UBAP2L/G3BP1 immunostaining, granules per cell; settings: glycan lost; control: sunitinib without OSMI-1
[2] = Western blot of UBAP2L, ccRCC cells; settings: glycan lost; control: shCtrl / untreated
[3] = CHX-chase, Western blot, ccRCC cells; settings: glycan lost; control: WT / shCtrl / untreated
[4] = UBAP2L/G3BP1 immunostaining after sunitinib; settings: glycan lost; control: UBAP2L-WT overexpression
[5] = CCK-8 dose response, 786-O and Caki-1; settings: glycan lost; control: UBAP2L-WT overexpression

B1: UBAP2L: OSMI-1 (protein)
parent chain: MMTSVGTNRARGNWEQPQNQNQTQHKQRPQATAEQIRLAQMISDHNDADFEEKVKQLIDITGKNQDECVIALHDCNGDVNRAINVLLEGNPDTHSWEMVGKKKGVSGQKDGGQTESNEEGKENRDRDRDYSRRRGGPPRRGRGASRGREFRGQENGLDGTKSGGPSGRGTERGRRGRGRGRGGSGRRGGRFSAQGMGTFNPADYAEPANTDDNYGNSSGNTWNNTGHFEPDDGTSAWRTATEEWGTEDWNEDLSETKIFTASNVSSVPLPAENVTITAGQRIDLAVLLGKTPSTMENDSSNLDPSQAPSLAQPLVFSNSKQTAISQPASGNTFSHHSMVSMLGKGFGDVGEAKGGSTTGSQFLEQFKTAQALAQLAAQHSQSGSTTTSSWDMGSTTQSPSLVQYDLKNPSDSAVHSPFTKRQAFTPSSTMMEVFLQEKSPAVATSTAAPPPPSSPLPSKSTSAPQMSPGSSDNQSSSPQPAQQKLKQQKKKASLTSKIPALAVEMPGSADISGLNLQFGALQFGSEPVLSDYESTPTTSASSSQAPSSLYTSTASESSSTISSNQSQESGYQSGPIQSTTYTSQNNAQGPLYEQRSTQTRRYPSSISSSPQKDLTQAKNGFSSVQATQLQTTQSVEGATGSAVKSDSPSTSSIPPLNETVSAASLLTTTNQHSSSLGGLSHSEEIPNTTTTQHSSTLSTQQNTLSSSTSSGRTSTSTLLHTSVESEANLHSSSSTFSTTSSTVSAPPPVVSVSSSLNSGSSLGLSLGSNSTVTASTRSSVATTSGKAPPNLPPGVPPLLPNPYIMAPGLLHAYPPQVYGYDDLQMLQTRFPLDYYSIPFPTPTTPLTGRDGSLASNPYSGDLTKFGRGDASSPAPATTLAQPQQNQTQTHHTTQQTFLNPALPPGYSYTSLPYYTGVPGLPSTFQYGPAVFPVAPTSSKQHGVNVSVNASATPFQQPSGYGSHGYNTGVSVTSSNTGVPDISGSVYSKTQQSFEKQGFHSGTPAASFNLPSALGSGGPINPATAAAYPPAPFMHILTPHQQPHSQILHHHLQQDGQTGSGQRSQTSSIPQKPQTNKSAYNSYSWGAN
decreases: other: stress granule formation [1] | expression_or_secretion [2] | degradation_or_half_life [3]

B2: UBAP2L: S305A (protein)
parent chain: B1 parent chain
decreases: degradation_or_half_life [3] | other: stress granule formation [4] | other: sunitinib resistance of cells, IC50 [5]
